Results: IntAct's records for PubMed 24855949

How the values were obtained:
cdn2a_human CDKN2A = cdn2a_human CDKN2A (UniProt P42771)
iaspp_human PPP1R13L [1] = biological target: T1, iaspp_human PPP1R13L (UniProt Q8WUF5)
T1 sequence: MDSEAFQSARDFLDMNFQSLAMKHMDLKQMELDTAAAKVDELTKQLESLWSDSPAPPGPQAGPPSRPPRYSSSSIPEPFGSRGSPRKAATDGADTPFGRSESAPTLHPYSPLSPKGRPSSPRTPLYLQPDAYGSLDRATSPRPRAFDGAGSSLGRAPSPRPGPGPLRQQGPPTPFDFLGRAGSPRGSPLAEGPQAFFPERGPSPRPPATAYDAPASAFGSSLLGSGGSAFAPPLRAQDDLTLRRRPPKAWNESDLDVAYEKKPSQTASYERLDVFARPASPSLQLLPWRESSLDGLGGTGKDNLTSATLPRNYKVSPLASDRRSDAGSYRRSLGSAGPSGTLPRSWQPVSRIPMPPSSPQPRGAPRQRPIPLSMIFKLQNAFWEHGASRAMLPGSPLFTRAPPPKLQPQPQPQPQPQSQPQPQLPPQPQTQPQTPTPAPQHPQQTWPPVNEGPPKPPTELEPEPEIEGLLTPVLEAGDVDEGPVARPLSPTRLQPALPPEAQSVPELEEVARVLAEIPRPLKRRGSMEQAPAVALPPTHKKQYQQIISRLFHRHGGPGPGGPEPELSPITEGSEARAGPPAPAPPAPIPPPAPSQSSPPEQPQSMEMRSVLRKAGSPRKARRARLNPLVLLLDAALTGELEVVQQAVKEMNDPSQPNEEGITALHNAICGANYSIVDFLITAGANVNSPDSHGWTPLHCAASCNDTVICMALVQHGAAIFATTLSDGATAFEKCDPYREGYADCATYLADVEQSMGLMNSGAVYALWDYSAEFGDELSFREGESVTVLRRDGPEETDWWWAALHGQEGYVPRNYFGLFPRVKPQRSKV

iaspp_human PPP1R13L [2] = biological target: T1, iaspp_human PPP1R13L; remark: listed apart in the source
ikba_chick NFKBIA = ikba_chick NFKBIA (UniProt Q91974)
Chain of ikba_chick NFKBIA (Q91974 whole entry): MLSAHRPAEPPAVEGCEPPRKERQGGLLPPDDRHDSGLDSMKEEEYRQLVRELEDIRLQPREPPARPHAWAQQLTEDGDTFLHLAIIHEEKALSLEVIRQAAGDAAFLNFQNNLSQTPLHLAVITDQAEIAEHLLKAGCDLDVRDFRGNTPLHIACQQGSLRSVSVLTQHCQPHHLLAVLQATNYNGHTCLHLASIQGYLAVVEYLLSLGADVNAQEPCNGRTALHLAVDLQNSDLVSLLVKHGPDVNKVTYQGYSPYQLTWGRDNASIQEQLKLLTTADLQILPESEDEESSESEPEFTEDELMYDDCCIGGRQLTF

| Substance | effect of a mutation on the interaction (cdn2a_human CDKN2A) | effect of a mutation on the interaction (iaspp_human PPP1R13L [1]) | effect of a mutation on the interaction (iaspp_human PPP1R13L [2]) | effect of a mutation on the interaction (ikba_chick NFKBIA) |
| --- | --- | --- | --- | --- |
| GTP-binding nuclear protein Ran (Homo sapiens) (from UniProt P62826) Q69L | disrupting interaction strength | disrupting interaction strength | – | – |
| GTP-binding nuclear protein Ran (Homo sapiens) (from UniProt P62826) V187R;V188R | – | – | decreasing interaction strength | decreasing interaction strength |
| GTP-binding nuclear protein Ran (Homo sapiens) (from UniProt P62826) V188R | – | – | – | decreasing interaction strength |
